Reference: the supplement of paper PMC10567573

B1: LCOR (parent)
chain: YKVKERLGTLKNPPKKKMKLMSG

Variants of: B1
Assay: protein stability index of a GFP-peptide fusion (GPS, HEK-293T) (PSI 1-6); higher = more stable
Details: c terminus: native
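Also: lentivirally expressed fusions sorted by FACS into six bins by GFP to DsRed ratio, PSI derived from sequencing read proportions per bin multiplied by bin number.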

Variant | protein stability index
YKVKERLGTLKNNPKKKMKLMSG [P13N] | 2.05
YKVKERLGTLKNSPKKKMKLMSG [P13S] | 2.09
YKVKERLGTLKNRPKKKMKLMSG [P13R] | 2.2
YKVKERLGTLKNEPKKKMKLMSG [P13E] | 2.94
YKVKERLGTLKNPPKVKMKLMSG [K16V] | 1.87
YKVKERLGTLKNPPKNKMKLMSG [K16N] | 1.76
YKVKERLGTLKNPPKPKMKLMSG [K16P] | 1.93
YKVKERLGTLKNPPKHKMKLMSG [K16H] | 1.49
YKVKERLGTLKNPPKMKMKLMSG [K16M] | 1.49
YKVKERLGTLKNPPKQKMKLMSG [K16Q] | 2.17
YKVKERLGTLKNPPKIKMKLMSG [K16I] | 1.39
YKVKERLGTLKNPPKYKMKLMSG [K16Y] | 2.98
YKVKERLGTLKNPPKTKMKLMSG [K16T] | 1.78
YKVKERLGTLKNPPKWKMKLMSG [K16W] | 2.45
YKVKERLGTLKNPPKCKMKLMSG [K16C] | 1.15
YKVKERLGTLKNPPKEKMKLMSG [K16E] | 2.83
YKVKERLGTLKNPPKRKMKLMSG [K16R] | 2.55
YKVKERLGTLKNPPKFKMKLMSG [K16F] | 1.45
YKVKERLGTLKNPPKGKMKLMSG [K16G] | 2.57
YKVKERLGTLKNPPKSKMKLMSG [K16S] | 1.46
YKVKERLGTLKNPPKDKMKLMSG [K16D] | 2.35
YKVKERLGTLKNPPKLKMKLMSG [K16L] | 2.34
YKVKERLGTLKNPPKKKWKLMSG [M18W] | 1.36
YKVKERLGTLKNPPKKKHKLMSG [M18H] | 2.03
YKVKERLGTLKNPPKKKIKLMSG [M18I] | 2.02

Variant | protein stability index
YKVKERLGTLKNPPKKKCKLMSG [M18C] | 1.82
YKVKERLGTLKNPPKKKTKLMSG [M18T] | 1.36
YKVKERLGTLKNPPKKKQKLMSG [M18Q] | 2.23
YKVKERLGTLKNPPKKKDKLMSG [M18D] | 3
YKVKERLGTLKNPPKKKYKLMSG [M18Y] | 2.43
YKVKERLGTLKNPPKKKEKLMSG [M18E] | 2.24
YKVKERLGTLKNPPKKKSKLMSG [M18S] | 1.52
YKVKERLGTLKNPPKKKPKLMSG [M18P] | 2.03
YKVKERLGTLKNPPKKKLKLMSG [M18L] | 1.81
YKVKERLGTLKNPPKKKVKLMSG [M18V] | 2
YKVKERLGTLKNPPKKKNKLMSG [M18N] | 2.06
YKVKERLGTLKNPPKKKAKLMSG [M18A] | 2.49
YKVKERLGTLKNPPKKKRKLMSG [M18R] | 2.2
YKVKERLGTLKNPPKKKFKLMSG [M18F] | 1.98
YKVKERLGTLKNPPKKKGKLMSG [M18G] | 2.59
YKVKERLGTLKNPPKKKMKGMSG [L20G] | 3.74
YKVKERLGTLKNPPKKKMKAMSG [L20A] | 3.14
YKVKERLGTLKNPPKKKMKKMSG [L20K] | 3.8
YKVKERLGTLKNPPKKKMKNMSG [L20N] | 2.43
YKVKERLGTLKNPPKKKMKMMSG [L20M] | 1.55
YKVKERLGTLKNPPKKKMKEMSG [L20E] | 3.99
YKVKERLGTLKNPPKKKMKIMSG [L20I] | 2.9
YKVKERLGTLKNPPKKKMKFMSG [L20F] | 2.55
YKVKERLGTLKNPPKKKMKDMSG [L20D] | 3.66
YKVKERLGTLKNPPKKKMKCMSG [L20C] | 1.8

Variant | protein stability index
YKVKERLGTLKNPPKKKMKHMSG [L20H] | 3.95
YKVKERLGTLANPPKKKMKLMSG [K11A] | 3.29
YKVKERLGTLRNPPKKKMKLMSG [K11R] | 2.39
YKVKERLGTLINPPKKKMKLMSG [K11I] | 3.65
YKVKERLGTLYNPPKKKMKLMSG [K11Y] | 2.48
YKVKERLGTLSNPPKKKMKLMSG [K11S] | 1.55
YKVKERLGTLCNPPKKKMKLMSG [K11C] | 2.02
YKVKERLGTLNNPPKKKMKLMSG [K11N] | 2.29
YKVKERLGTLDNPPKKKMKLMSG [K11D] | 1.76
YKVKERLGTLHNPPKKKMKLMSG [K11H] | 1.79
YKVKERLGTLENPPKKKMKLMSG [K11E] | 1.69
YKVKERLGTLQNPPKKKMKLMSG [K11Q] | 1.44
YKVKERLGTLMNPPKKKMKLMSG [K11M] | 3.04
YKVKERLGTLGNPPKKKMKLMSG [K11G] | 3.44
YKVKERLGTLKNPSKKKMKLMSG [P14S] | 3.59
YKVKERLGTLKNPDKKKMKLMSG [P14D] | 1.71
YKVKERLGTLKNPNKKKMKLMSG [P14N] | 1.49
YKVKERLGTLKNPYKKKMKLMSG [P14Y] | 3.03
YKVKERLGTLKNPLKKKMKLMSG [P14L] | 1.32
YKVKERLGTLKNPKKKKMKLMSG [P14K] | 1.77
YKVKERLGTLKNPAKKKMKLMSG [P14A] | 1.42
YKVKERLGTLKNPCKKKMKLMSG [P14C] | 2.14
YKVKERLGTLKNPWKKKMKLMSG [P14W] | 2.41
YKVKERLGTLKNPTKKKMKLMSG [P14T] | 1.63
YKVKERLGTLKNPEKKKMKLMSG [P14E] | 1.37

Variant | protein stability index
YKVKERLGTLKNPMKKKMKLMSG [P14M] | 3.42
YKVKERLGTLKNPIKKKMKLMSG [P14I] | 1.78
YKVKERLGTLKNPGKKKMKLMSG [P14G] | 3.94
YKVKERLGTLKNPHKKKMKLMSG [P14H] | 2.87
YKVKERLSTLKNPPKKKMKLMSG [G8S] | 1.76
YKVKERLTTLKNPPKKKMKLMSG [G8T] | 2.16
YKVKERLPTLKNPPKKKMKLMSG [G8P] | 3.05
YKVKERLYTLKNPPKKKMKLMSG [G8Y] | 2.08
YKVKERLRTLKNPPKKKMKLMSG [G8R] | 1.4
YKVKERLQTLKNPPKKKMKLMSG [G8Q] | 3.21
YKVKERLVTLKNPPKKKMKLMSG [G8V] | 2.33
YKVKERLGTLKNPPRKKMKLMSG [K15R] | 2.04
YKVKERLGTLKNPPSKKMKLMSG [K15S] | 2.17
YKVKERLGTLKNPPPKKMKLMSG [K15P] | 2.99
YKVKERLGTLKNPPLKKMKLMSG [K15L] | 1.58
YKVKERLGTLKNPPWKKMKLMSG [K15W] | 3.79
YKVKERLGTLKNPPIKKMKLMSG [K15I] | 3.63
YKVKERLGTLKNPPEKKMKLMSG [K15E] | 2.66
YKVKERLGTLKNPPHKKMKLMSG [K15H] | 2.34
YKVKERLGTLKNPPNKKMKLMSG [K15N] | 2.34
YKVKERLGTLKNPPDKKMKLMSG [K15D] | 2.06
YKVKERLGTLKNPPQKKMKLMSG [K15Q] | 1.84
